The assay deals with recombinant murine IFN-α subtype A (murine). As to the kind of experiment: cell-based or functional assay.
recombinant murine IFN-α subtype A (murine), sequence (P01573 24-190): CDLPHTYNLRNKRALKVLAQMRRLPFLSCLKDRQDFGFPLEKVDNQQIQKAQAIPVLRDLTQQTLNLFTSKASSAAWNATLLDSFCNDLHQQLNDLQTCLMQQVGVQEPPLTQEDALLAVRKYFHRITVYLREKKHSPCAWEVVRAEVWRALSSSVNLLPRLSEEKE

As for “D3 immunoglobulin-like domain of vaccinia virus B18 protein, 6xHis tagged, expressed in bacteria (from UniProt P21077 254-353) (receptor)”, the amount of protein for full IFN neutralization, against B18 was determined as 1.

For the origin of these results see patent EP4335864A1.
